From US20240034774A1 (Gilead, published 2024)

B1: 1.31.35-1 (antibody, human IgG1, kappa, V domains shown)
VH: QVQLVQSGAEVTKPGASVRVSCEASGYNIRDYFIHWWRQAPGQGLQWVGWINPKTGQPNNPRQFQGRVSLTRHASWDFDTFSFYMDLKALRSDDTATYFCARQRSDYWDFDVWGSGTQVTVSS
VL: DIQMTQSPSSLSASVGDRVTITCQANGYLNWYQQKPGKAPKLLIYDGSNLETGVPSRFSGSRWGQEYTLTISSLQPEDIATYFCQVYEFVGPGTNLDIKR
B2: 1.35.35-1 (antibody, human IgG1, kappa, V domains shown)
VH: QVQLVQSGAEVKKPGASVRVSCKASGYNIRDYFMHWWRQAPGQGLQWVGWINPKTGQPNNPRQFQGRVTMTRHASWDFDTFSFYMDLSRLRSDDTATYFCARQRTDYWDFDVWGQGTMVTVSS
VL: DIQMTQSPSSLSASVGDRVTITCQANGYLNWYQQKPGKAPKLLIYDGSNLETGVPSRFSGSRWGQEYTLTISSLQPEDIATYFCQVYEFVGPGTNLDIKR
B3: 1.32.35-1 (antibody, human IgG1, kappa, V domains shown)
VH: QVQLVQSGAEVTKPGASVRVSCEASGYNIRDYFIHWWRQAPGQGLQWVGWINPKTGQPNNPRQFQGRVSLTRHASWDFDTFSFYMDLKALRSDDTAVYFCARQRTDYWDFDVWGSGTQVTVSS
VL: DIQMTQSPSSLSASVGDRVTITCQANGYLNWYQQKPGKAPKLLIYDGSNLETGVPSRFSGSRWGQEYTLTISSLQPEDIATYFCQVYEFVGPGTNLDIKR
B4: 1.33.35-1 (antibody, human IgG1, kappa, V domains shown)
VH: QVQLVQSGAEVKKPGASVRVSCKASGYNIRDYFIHWWRQAPGQGLQWVGWINPKTGQPNNPRQFQGRVTLTRHASWDFDTFSFYMDLKALRSDDTATYFCARQRSDYWDFDVWGSGTQVTVSS
VL: DIQMTQSPSSLSASVGDRVTITCQANGYLNWYQQKPGKAPKLLIYDGSNLETGVPSRFSGSRWGQEYTLTISSLQPEDIATYFCQVYEFVGPGTNLDIKR
B5: 1.34.35-1 (antibody, human IgG1, kappa, V domains shown)
VH: QVQLVQSGAEVKKPGASVRVSCKASGYNIRDYFIHWWRQAPGQGLQWVGWINPKTGQPNNPRQFQGRVTLTRHASWDFDTFSFYMDLKALRSDDTAVYFCARQRTDYWDFDVWGSGTQVTVSS
VL: DIQMTQSPSSLSASVGDRVTITCQANGYLNWYQQKPGKAPKLLIYDGSNLETGVPSRFSGSRWGQEYTLTISSLQPEDIATYFCQVYEFVGPGTNLDIKR
B6: 1.36.35-1 (antibody, human IgG1, kappa, V domains shown)
VH: QVQLVQSGAEVKKPGASVRVSCKASGYNIRDYFMHWWRQAPGQGLQWVGWINPKTGQPNNPRQFQGRVTMTRHASWDFDTFSAYMDLSRLRSDDTATYFCARQRTDYWDFDVWGQGTMVTVSS
VL: DIQMTQSPSSLSASVGDRVTITCQANGYLNWYQQKPGKAPKLLIYDGSNLETGVPSRFSGSRWGQEYTLTISSLQPEDIATYFCQVYEFVGPGTNLDIKR
B7: 1.35.33-1 (antibody, human IgG1, kappa)
heavy: QVQLVQSGAEVKKPGASVRVSCKASGYNIRDYFMHWWRQAPGQGLQWVGWINPKTGQPNNPRQFQGRVTMTRHASWDFDTFSFYMDLSRLRSDDTATYFCARQRTDYWDFDVWGQGTMVTVSSASTKGPSVFPLAPSSKSTSGGTAALGCLVKDYFPEPVTVSWNSGALTSGVHTFPAVLQSSGLYSLSSVVTVPSSSLGTQTYICNVNHKPSNTKVDKKVEPKSCDKTHTCPPCPAPELLAGPDVFLFPPKPKDTLMISRTPEVTCVVVDVSHEDPEVKFNWYVDGVEVHNAKTKPREEQYNSTYRVVSVLTVLHQDWLNGKEYKCKVSNKALPLPEEKTISKAKGQPREPQVYTLPPSREEMTKNQVSLTCLVKGFYPSDIAVEWESNGQPENNYKTTPPVLDSDGSFFLYSKLTVDKSRWQQGNVFSCSVLHEALHSHYTQKSLSLSPGK
light: DIQMTQSPSSLSASVGDTVTITCQANGYLNWYQQRRGKAPKLLIYDGSNLERGVPSRFSGRRWGQEYTLTISSLQPEDIATYFCQVYEFVVPGTNLDIKRTVAAPSVFIFPPSDEQLKSGTASVVCLLNNFYPREAKVQWKVDNALQSGNSQESVTEQDSKDSTYSLSSTLTLSKADYEKHKVYACEVTHQGLSSPVTKSFNRGEC
B8: 1.36.34-1 (antibody, human IgG1, kappa)
heavy: QVQLVQSGAEVKKPGASVRVSCKASGYNIRDYFMHWWRQAPGQGLQWVGWINPKTGQPNNPRQFQGRVTMTRHASWDFDTFSAYMDLSRLRSDDTATYFCARQRTDYWDFDVWGQGTMVTVSSASTKGPSVFPLAPSSKSTSGGTAALGCLVKDYFPEPVTVSWNSGALTSGVHTFPAVLQSSGLYSLSSVVTVPSSSLGTQTYICNVNHKPSNTKVDKKVEPKSCDKTHTCPPCPAPELLAGPDVFLFPPKPKDTLMISRTPEVTCVVVDVSHEDPEVKFNWYVDGVEVHNAKTKPREEQYNSTYRVVSVLTVLHQDWLNGKEYKCKVSNKALPLPEEKTISKAKGQPREPQVYTLPPSREEMTKNQVSLTCLVKGFYPSDIAVEWESNGQPENNYKTTPPVLDSDGSFFLYSKLTVDKSRWQQGNVFSCSVLHEALHSHYTQKSLSLSPGK
light: DIQMTQSPSSLSASVGDTVTITCQANGYLNWYQQRRGKAPKLLIYDGSNLERGVPSRFSGRRWGQEYTLTISSLQPEDIATYFCQVYEFVTPGTRLDIKRTVAAPSVFIFPPSDEQLKSGTASVVCLLNNFYPREAKVQWKVDNALQSGNSQESVTEQDSKDSTYSLSSTLTLSKADYEKHKVYACEVTHQGLSSPVTKSFNRGEC
B9: 1.32.36-1 (antibody, human IgG1, kappa)
heavy: QVQLVQSGAEVTKPGASVRVSCEASGYNIRDYFIHWWRQAPGQGLQWVGWINPKTGQPNNPRQFQGRVSLTRHASWDFDTFSFYMDLKALRSDDTAVYFCARQRTDYWDFDVWGSGTQVTVSSASTKGPSVFPLAPSSKSTSGGTAALGCLVKDYFPEPVTVSWNSGALTSGVHTFPAVLQSSGLYSLSSVVTVPSSSLGTQTYICNVNHKPSNTKVDKKVEPKSCDKTHTCPPCPAPELLAGPDVFLFPPKPKDTLMISRTPEVTCVVVDVSHEDPEVKFNWYVDGVEVHNAKTKPREEQYNSTYRVVSVLTVLHQDWLNGKEYKCKVSNKALPLPEEKTISKAKGQPREPQVYTLPPSREEMTKNQVSLTCLVKGFYPSDIAVEWESNGQPENNYKTTPPVLDSDGSFFLYSKLTVDKSRWQQGNVFSCSVLHEALHSHYTQKSLSLSPGK
light: DIQMTQSPSSLSASVGDRVTITCQANGYLNWYQQKPGKAPKLLIYDGSNLETGVPSRFSGSRWGQEYTLTISSLQPEDIATYFCQVYEFVTPGTNLDIKRTVAAPSVFIFPPSDEQLKSGTASVVCLLNNFYPREAKVQWKVDNALQSGNSQESVTEQDSKDSTYSLSSTLTLSKADYEKHKVYACEVTHQGLSSPVTKSFNRGEC
B10: 1.31.36-1 (antibody, human IgG1, kappa)
heavy: QVQLVQSGAEVTKPGASVRVSCEASGYNIRDYFIHWWRQAPGQGLQWVGWINPKTGQPNNPRQFQGRVSLTRHASWDFDTFSFYMDLKALRSDDTATYFCARQRSDYWDFDVWGSGTQVTVSSASTKGPSVFPLAPSSKSTSGGTAALGCLVKDYFPEPVTVSWNSGALTSGVHTFPAVLQSSGLYSLSSVVTVPSSSLGTQTYICNVNHKPSNTKVDKKVEPKSCDKTHTCPPCPAPELLAGPDVFLFPPKPKDTLMISRTPEVTCVVVDVSHEDPEVKFNWYVDGVEVHNAKTKPREEQYNSTYRVVSVLTVLHQDWLNGKEYKCKVSNKALPLPEEKTISKAKGQPREPQVYTLPPSREEMTKNQVSLTCLVKGFYPSDIAVEWESNGQPENNYKTTPPVLDSDGSFFLYSKLTVDKSRWQQGNVFSCSVLHEALHSHYTQKSLSLSPGK
light: DIQMTQSPSSLSASVGDRVTITCQANGYLNWYQQKPGKAPKLLIYDGSNLETGVPSRFSGSRWGQEYTLTISSLQPEDIATYFCQVYEFVTPGTNLDIKRTVAAPSVFIFPPSDEQLKSGTASVVCLLNNFYPREAKVQWKVDNALQSGNSQESVTEQDSKDSTYSLSSTLTLSKADYEKHKVYACEVTHQGLSSPVTKSFNRGEC
B11: 1.35.34-1 (antibody, human IgG1, kappa)
heavy: QVQLVQSGAEVKKPGASVRVSCKASGYNIRDYFMHWWRQAPGQGLQWVGWINPKTGQPNNPRQFQGRVTMTRHASWDFDTFSFYMDLSRLRSDDTATYFCARQRTDYWDFDVWGQGTMVTVSSASTKGPSVFPLAPSSKSTSGGTAALGCLVKDYFPEPVTVSWNSGALTSGVHTFPAVLQSSGLYSLSSVVTVPSSSLGTQTYICNVNHKPSNTKVDKKVEPKSCDKTHTCPPCPAPELLAGPDVFLFPPKPKDTLMISRTPEVTCVVVDVSHEDPEVKFNWYVDGVEVHNAKTKPREEQYNSTYRVVSVLTVLHQDWLNGKEYKCKVSNKALPLPEEKTISKAKGQPREPQVYTLPPSREEMTKNQVSLTCLVKGFYPSDIAVEWESNGQPENNYKTTPPVLDSDGSFFLYSKLTVDKSRWQQGNVFSCSVLHEALHSHYTQKSLSLSPGK
light: DIQMTQSPSSLSASVGDTVTITCQANGYLNWYQQRRGKAPKLLIYDGSNLERGVPSRFSGRRWGQEYTLTISSLQPEDIATYFCQVYEFVTPGTRLDIKRTVAAPSVFIFPPSDEQLKSGTASVVCLLNNFYPREAKVQWKVDNALQSGNSQESVTEQDSKDSTYSLSSTLTLSKADYEKHKVYACEVTHQGLSSPVTKSFNRGEC

Key:
BSA = BSA (UniProt P02769 25-607); assay: single-point ELISA, BSA control
gp120 SHIV SF162 P3 = gp120 SHIV SF162 P3 (SHIV SF162 P3); assay: single-point ELISA at EC50 conc. of A-1
gp120 CAAN = gp120 CAAN (HIV (CAAN)); assay: single-point ELISA at EC50 conc. of A-1
gp120 Bal = gp120 Bal (HIV (Bal)); assay: single-point ELISA at EC50 conc. of A-1

Row | Binder | ELISA A450 (BSA) [A450] | ELISA A450 (gp120 SHIV SF162 P3) [A450] | ELISA A450 (gp120 CAAN) [A450] | ELISA A450 (gp120 Bal) [A450]
1 | B1 | 0.06 | 0.61 | 0.77 | 0.9
2 | B2 | 0.06 | 0.42 | 0.67 | 0.88
3 | B3 | 0.06 | 0.5 | 0.59 | 0.89
4 | B4 | 0.07 | 0.71 | 0.81 | 1.03
5 | B5 | 0.06 | 0.56 | 0.77 | 0.94
6 | B6 | 0.06 | 0.16 | 0.36 | 0.89
7 | B7 | 0.06 | 0.65 | 0.91 | 0.9
8 | B8 | 0.07 | 0.15 | 0.43 | 1.01
9 | B9 | 0.06 | 0.62 | 0.64 | 0.92
10 | B10 | 0.06 | 0.93 | 0.9 | 1.06
11 | B11 | 0.06 | 0.58 | 0.85 | 1
